From PMC2812701, “RelB and RelE of Escherichia coli Form a Tight Complex That Represses Transcription via the Ribbon–Helix–Helix Motif in RelB” (Journal of Molecular Biology, 2009)
Substitutions are numbered along the chain they refer to. Names and notes keep the numbering of the source. Values joined by “and” are separate entries in the source; they are usually repeats but may differ in a detail not shown here. Equal values may be shown once.

Assays:
[1] = tested on: RelB K13A;His6-RelE (Escherichia coli;Escherichia coli); test: EMSA; conditions: EMSA and footprint binding buffer as in an earlier paper (not given); footprint binding volume 35 ul, radical cleavage 37 C 1 min; native PAGE for EMSA
[2] = tested on: RelB R7A;His6-RelE (Escherichia coli;Escherichia coli); test: EMSA; conditions: EMSA and footprint binding buffer as in an earlier paper (not given); footprint binding volume 35 ul, radical cleavage 37 C 1 min; native PAGE for EMSA
[3] = tested on: RelB S28L;His6-RelE (Escherichia coli;Escherichia coli); test: EMSA; conditions: EMSA and footprint binding buffer as in an earlier paper (not given); footprint binding volume 35 ul, radical cleavage 37 C 1 min; native PAGE for EMSA
[4] = target: RelB-Cys (E. coli) (UniProt P0C079); test: SPR; Biacore 3000, CM5 chip; about 40 RU RelB-Cys immobilised by ligand thiol coupling; His6-RelE injected at 12.5-100 nM, 60 ul/min; HBS-EP (10 mM Hepes, 150 mM NaCl, 0.005% Tween 20, 3 mM EDTA, pH 7.4); 1:1 Langmuir fit; apparent Kd (koff/kon)
[5] = target: T1, HMK-RelB (E. coli) (UniProt P0C079)
T1 sequence (chain, 32P label on the N-terminal HMK-tag (RRASV)): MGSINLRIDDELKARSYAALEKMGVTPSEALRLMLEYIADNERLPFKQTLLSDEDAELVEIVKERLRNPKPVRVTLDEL

[6] = target: RelB-Cys (E. coli) (UniProt P0C079); test: SPR; Biacore 3000, CM5 chip; RelB-Cys immobilised by ligand thiol coupling; Lon-His6 injected at 200 nM with or without MgCl2 (8 mM) and ATP (2 mM), and at 12.5-100 nM (monomer) for kinetics; 60 ul/min; HBS-EP pH 7.4; apparent Kd
[7] = target: T2, His6-RelE (E. coli, UniProt P0C077 1-95); test: amino acid analysis of the co-purified complex; purified RelB·RelE complex preformed in vivo (Table S2); conditions: partners not purified
T2 construct: toxin RelE (mRNA interferase) of the relBE locus, Escherichia coli, wild type; also called co-repressor RelE; mRNA interferase RelE; source: also in cells, co-expressed with RelB; not shown: His6, N-terminal, kept
T2 sequence (looked up): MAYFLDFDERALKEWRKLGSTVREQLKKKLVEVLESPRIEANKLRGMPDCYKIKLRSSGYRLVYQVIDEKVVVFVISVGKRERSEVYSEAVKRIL

[8] = target: the molecule itself; test: cross-linking; chemical cross-linking of WT RelB and the mutated variants with BS3 [bis(sulfosuccinimidyl) suberate] (Fig. S1)
[9] = target: T2, His6-RelE; test: other fluorescence titration; tryptophan fluorescence of His6-RelE (0.35 uM) titrated with RelB; 25 °C; phosphate-buffered saline pH 7.4; excitation 295 nm, emission about 330 nm; conditions: both partners purified

Molecule relO166 (Cy5) has a K half [1] of over 1250 nM, a K half [2] of over 1250 nM and a K half [3] of over 1250 nM.

“His6-RelE (from UniProt P0C077 1-95) (natural protein)” gave a Kd [4] of 0.33 nM, an in vitro half-life of the complex [4] of 1.17 h and a koff [4] of 0.000166 s⁻¹. The kon [4] was 501000 M⁻¹ s⁻¹.

For “Lon-His6 (from UniProt P0A9M0 1-784) (enzyme)”, the in vitro degradation of 32P-labelled HMK-RelB (0.13 uM) by Lon (0.6 uM) at 37 °C, ATP- and Mg2+-dependent, time course up to 120 min; in vitro half-life of HMK-RelB [5] was over 1 h, the Kd [6] was under 2 nM and the koff [6] was 0.000234 s⁻¹.

B1: RelB (wild type) (natural protein, E. coli, UniProt P0C079 1-79, looked up)
chain: T1 sequence (chain, 32P label on the N-terminal HMK-tag (RRASV))
notes: antitoxin RelB of the relBE locus, Escherichia coli, wild type; also called WT RelB; antitoxin RelB; source: also in cells, co-expressed with His6-RelE
With B1 the “stoichiometry N” value [7] was 2 RelB/RelE, the “stoichiometry N” value [8] was 2 and 4 and the “stoichiometry N” value [9] was about 2 RelB/RelE.

B2: RelB^I8A (natural protein, E. coli, UniProt P0C079 1-79, looked up)
chain: T1 sequence (chain, 32P label on the N-terminal HMK-tag (RRASV)) with I8A
notes: antitoxin RelB, Escherichia coli, with I8A; also called RelB RHH variant I8A; source: also in cells, co-expressed with His6-RelE
B2 was tested, and the “stoichiometry N” value [8] was 2 and 4.

B3: RelB^K13A (natural protein, E. coli, UniProt P0C079 1-79, looked up)
chain: T1 sequence (chain, 32P label on the N-terminal HMK-tag (RRASV)) with K13A
notes: antitoxin RelB, Escherichia coli, with K13A; also called RelB RHH variant K13A; source: also in cells, co-expressed with His6-RelE
B3: binds [8].

B4: RelB^R7A (natural protein, E. coli, UniProt P0C079 1-79, looked up)
chain: T1 sequence (chain, 32P label on the N-terminal HMK-tag (RRASV)) with R7A
notes: antitoxin RelB, Escherichia coli, with R7A; also called RelB RHH variant R7A; source: also in cells, co-expressed with His6-RelE
B4: binds [8].

B5: RelB^S28L (natural protein, E. coli, UniProt P0C079 1-79, looked up)
chain: T1 sequence (chain, 32P label on the N-terminal HMK-tag (RRASV)) with S28L
notes: antitoxin RelB, Escherichia coli, with S28L; also called RelB RHH variant S28L; source: also in cells, co-expressed with His6-RelE
In the case of B5, the “stoichiometry N” value [8] is reported as 2 and 4.

B6: RelB^S28R (natural protein, E. coli, UniProt P0C079 1-79, looked up)
chain: T1 sequence (chain, 32P label on the N-terminal HMK-tag (RRASV)) with S28R
notes: antitoxin RelB, Escherichia coli, with S28R; also called RelB RHH variant S28R; source: also in cells, co-expressed with His6-RelE
With B6 the “stoichiometry N” value [8] was 2 and 4.
